From the supplement of paper PMC9170038

Test system: K4 kissing-loop RNA reporter
Assay: apparent KD of K4 kissing-loop reporter; higher = weaker reporter binding
Details: Eterna round: R107
Method: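 RNA-MaP round R107: designed RNA switches with theophylline, tryptophan, arginine or FMN aptamers are transcribed on-chip within common flanks. They are titrated with a labelled K4 kissing-loop RNA reporter in RNA-MaP buffer (100 mM Tris pH 7.5, 80 mM KCl, 4 mM MgCl2), without ligand or with the indicated ligand. Median apparent KD per design.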

[1] = input ligand: theophylline 20 uM
[2] = input ligand: tryptophan 2.4 mM
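Further: bound reporter read as fluorescence of individual clusters on recovered sequencing chips by microscopy, with normalized cluster intensities fitted with a binding model.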

Row | Sequence | apparent KD of K4 kissing-loop reporter (input ligand: FMN 200 uM) [nM] | apparent KD of K4 kissing-loop reporter (input ligand: arginine 13.2 mM) [nM] | apparent KD of K4 kissing-loop reporter (input ligand: none) [nM] | apparent KD of K4 kissing-loop reporter [1] [nM] | apparent KD of K4 kissing-loop reporter [2] [nM]
1 | UGACAUUGCUCAGAUACCAGACAAGAGGAUCACCCUUGUGCCAACGUACAAAUAAUAAAUGUCCCUUGGCAGCUGAGCAAUGUCU [TheoBX 15] | 64.1 | 31.9 | 58.2 | 92.8 | 47.5
2 | GCUAUGGUAGGAAGGAGCGCUUGUUCGGUCAUAUGAGUGAUGUUCGAGACUGAGCAUUUAUAGCAGGUAGGUCGCCUACUAUAGC [Arginine B K4 10] | 164 | 179 | 181 | 160 | 175
3 | UGACUGGACUGAAGGAGCGCUAAAACUCCUAGUGAUGUUAGGAAAACGAGACAAAGUCUCGAGCAGGUAGGUCGCAGUCUAGUCU [ArgBS 21 #SwitchBubble #StaticStem] | 142 | 119 | 131 | 148 | 128
4 | GCAGGACGAGGAGGAGGAUGAAUUACUGAAGGAGCGCAUAUUUUUGCAGGUAGGUCGCGGUAAACAAGUAUAGUGAUGUUAUAUA [SSArgA.M] | 415 | 464 | 446 | 514 | 264
5 | AACGGCCAGUCGGCCGCCACUCAAAGCAGUGAUGUUGCUAACUUUCUAAAAGAGUGAUGUUCUUAGAGGACCGGGACUAAUGUAA [Exclusion Tryptophan B GF 2] | 115 | 147 | 125 | 143 | 102
6 | UUUCGGUUCUGAGGAUAUUCGGACAAAUAUAGUGAUGUUGUAUAAGGAGGAGGGUGUUGGCAGUGCGGAGAAGGCAGAAGAGGAU [ExFMNB.U] | 848 | 737 | 992 | 556 | 446
7 | AGAUAGGGCUGAAGGAGCGUCGGAAAAGAAAAGAUGAAAUCCAGUGAUGUUGGAUAAAUCCGACAGGUAGGUCGCAGUUUUAUGA [#01 K4 Arginine B Same State] | 126 | 129 | 133 | 161 | 120
8 | UGAUACCAGACUGAUACCAGCAAGUGAUGUUUGCUGAUCUAAAGCAGUCAAAGACUGCCUUGCCCUUGGCAGCAGUCUGGUAUCU [TheoBX 25 #SwitchBubble #StaticStem] | 92.3 | 81.7 | 96.6 | 156 | 81.1
9 | UAGUCGCUAGUUAGCGACAACGGGUCAGAUACCAGACUAGCGAUAGUCCCUUGGCAGCUGAAGUUCAGUGAUGUUGAACGGAUUA [Theo A SS t10] | 192 | 296 | 265 | 230 | 207
10 | AGACUACCACACUGUCAAUAGACAGUGGACUAGGAUAUGCUGAUAAGCAGAAGGAGUGAUGUUCCUUGGUAGUCAAUAAAAUAAU [FmnAX 13 G28+U67] | 308 | 269 | 253 | 335 | 265
11 | GUAGUUGCGCAAGGAUAUUAGUUAAGUGAUGUUUGAUUCGGUAUUGUUUACGUACACUGACCCGAUUAAGAAGGUGCGGGCAGCG [theeternabot_exclusion_KL_FMN_B_50] | 604 | 582 | 580 | 343 | 369
12 | ACGUAGUUCUAGGAUACCAGCCAAGAAGCCAGGACAAAAGUCCUGGCUGCCAGUGAUGUUGGCCCUUGGCAGCCUAGAACUACGA [Omei KL Theo B Exc B v10] | 128 | 113 | 121 | 109 | 121
13 | GGAUCCACCAGUGAUGUUGGAGAAAACUCUAAGGAUAUGACGAAAGUCAGAAGGUGGUAGACUGGACAAAGUCCGGUGGGAUCCA [FmnA10 U30+G78] | 264 | 229 | 350 | 406 | 317
14 | UAUCGAGUGAUGUUCGAUGUAGUCCAUUCAGAGGAUAUAGGAUUGACUAGAAGGCUGAAACCUUCUUCGAGUGAUGUUCGAGGAU [Same State FMN A GF4] | 92.5 | 39.6 | 58.9 | 45.2 | 47.4
15 | UUAUAUUUCAGUGAUGUUGAAAAUAUAACAGAGGAUAUGCGUUUAAGCAGAAGGCUGAAAUACUAUACUUUAAUCUAUUAAAUUU [JR_Nu_SSFMNA_Sub027] | 195 | 356 | 350 | 353 | 323
16 | CUCGAGUGAUGUUCGAUUAUUUAUACAGAUACCAGUGAAUUUUAACACCCUUGGCAGCUGGUUGUAUCUUUGUAAUUUACACAAG [JR_ExcTheophyA_Sub005] | 120 | 168 | 113 | 151 | 93.6
17 | UUAGUAUAGAGAGGAUAUACCUUCCAGUGAUGUUGGAUAGAUGAAUUUAAUCAUCAAGCAUAGCUUGUAGAAGGCUCUAUACAUU [AK1 SS FMN B] | 373 | 558 | 535 | 637 | 613
18 | GGUUCGAGUGAUGUUCGGGUCGAUUGGGAAGGAGCGCCCGGAAGGGCAGGUAGGUCGCCCGGGCCGCGCGGGAAACCGCGCGUCC [#2 Same State - Arginine A Attempt #7 (HarryS)] | 216 | 121 | 175 | 147 | 144
19 | UUUAUAAUGUCGGCCGCCACUGGAUUAAUAUUUGUAUAAUCUAGUUCUGAGUGAUGUUUAGAGUCCAGGACCGGGACAUUUGUUA [#10 K4 Tryptophan B Exclusion] | 701 | 515 | 651 | 788 | 520
